Reference: patent US20200377595A1

Target: recombinant human CD3 (human)
Experiment: SPR, Ab captured by anti-Fc, 37 C

Chain of recombinant human CD3 (human) (P07766 22-126, chain 1 of 2): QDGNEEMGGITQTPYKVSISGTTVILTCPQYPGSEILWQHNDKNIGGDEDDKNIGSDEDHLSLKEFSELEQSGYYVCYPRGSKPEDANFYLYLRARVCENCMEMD
Chain of recombinant human CD3 (human) (P04234 22-100, chain 2 of 2, further chain): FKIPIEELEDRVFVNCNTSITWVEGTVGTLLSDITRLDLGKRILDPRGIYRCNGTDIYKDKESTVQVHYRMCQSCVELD

Kd: 17.8 nM
koff: 0.00151 s⁻¹
kon: 85000 M⁻¹ s⁻¹
B1: GPC3/CtrlxCD3 trispecific antibody (protein, part only; not given: control arm and constant regions, not shown: another chain or arm of the molecule; a dimerising Fc or GST)
VH 1: QVQLVESGGGLVQPGRSLRLSCAASGFTFSNAWMHWVRQAPGKGLEWVAQIKDRANSYNTYYAESVKGRFTISRDDSKNSIYLQMNSLKTEDTAVYYCRYVHYTTYAGSSFSYGVDAWGQGTTVTVSS
VL 1: DIVMTQSPLSLPVTPGEPASISCRSSQPLVHSNRNTYLHWYQQKPGQAPRLLIYKVSNRFSGVPDRFSGSGSGTDFTLKISRVEAEDVGVYYCGQGTQVPYTFGQGTKLEIK
VH 2: QVQLVQSGAEVKKPGASVTVSCKASGYTFTDYEMHWIRQPPGEGLEWIGAIDGPTPDTAYSEKFKGRVTLTADKSTSTAYMELSSLTSEDTAVYYCTRFYSYTYWGQGTLVTVSS
VL 2: DIVMTQSPLSLPVTPGEPASISCRSSQPLVHSNRNTYLHWYQQKPGQAPRLLIYKVSNRFSGVPDRFSGSGSGTDFTLKISRVEAEDVGVYYCGQGTQVPYTFGQGTKLEIK
